The target in data set [1] is alpha-synuclein fibril P110 (C-terminally truncated) (UniProt P37840 P37840:1-110). Kind of data set: FP filter; nitrocellulose filter. The conditions noted are these: tags: fibril lacking the 30 C-terminal residues, chain copies: fibril (stated). The method, then: (§1) The affinity of candidate aptamers as well as that of aptamers from the literature was also measured against different “amyloid” type fibers (Tau1N3R fibers and Aβ40 fibers), in addition to the conformers of F and R α-syn fiber. The affinity of the candidate aptamers against the α-Syn fiber “P110” was also measured. This fiber was made from α-Syn protein truncated from amino acid n° 110 (thus missing the 30 amino acids of the C-terminal domain). The oligonucleotides (aptamers) at 10 nM (hybridized by heat shock to SpG-LNA radioactively marked with P32 for RNA2′F chemistry oligonucleotides, or directly marked with P32 for DNA oligonucleotides) were presented to proteins at 250 nM in a solution of Ts1X containing Igepal at 0.1% and ssDNA added in a 5-1 proportion relative to the oligonucleotides (that is to say between 0.135 μg/ml and 17.325 μg/ml). After 30 min of incubation at 37° C., 25 μL of each mixture is deposited on the nitrocellulose membrane, then filtered. Two washes with Ts1X are then carried out. The amounts of oligonucleotides retained on the nitrocellulose membrane are quantified by exposing the membrane to a photostimulable phosphorus screen. The Kd and Bₘₐₓ were calculated by means of the Prism software using a non-linear regression model analyzing the (specific and non-specific) total affinity of a candidate for the target, assuming that there is only one binding site on the target for the candidate. The measurements were carried out in triplicate (three independent experiments on different days) for the F and R type α-Syn fibers, and in duplicate for the other fibers (Tau1N3R and the fibers Aβ40, and P110) as well as for α-Syn monomers.

Data set [2] has as its target T1, alpha-synuclein fibril, F-type conformer (fibrils) (UniProt P37840 P37840:1-140). The experiment in a line: FP filter; nitrocellulose filter; retained much more than random sequence.
In data set [3] the target is alpha-synuclein fibril, R-type conformer (ribbons) (UniProt P37840 P37840:1-140). Kind of data set: FP filter; nitrocellulose filter; not above random sequence.
Data set [4] deals with T1, alpha-synuclein fibril, F-type …. The data set is described as above.
The target in the next data set is amyloid-beta 40 fibril (UniProt P05067 P05067:672-711). Kind of data set: FP filter; nitrocellulose filter. The conditions noted are these: tags: Abeta40 fibers, chain copies: fibril (stated). Here is the method: as §1
Data set [5] has as its target T1, alpha-synuclein fibril, F-type …. The experiment in a line: FP filter; nitrocellulose filter; 10 nM aptamer, 1 uM fibers, Ts1X, 37 C.
For data set [6] the target is unchanged. Kind of data set: FP filter; nitrocellulose filter; Ts1X (10 mM HEPES pH 7.6, 150 mM NaCl, 5 mM KCl, 1.5 mM CaCl2, 1 mM MgCl2), 0.1% Igepal, ssDNA competitor, 37 C; Bmax 52.48 fmol; 3/3.

The values that follow come from patent US20240240191, “RNA APTAMERS SPECIFIC FOR A-SYNUCLEIN PROTEIN FIBER CONFORMERS” (COMMISSARIAT A L'ENERGIE ATOMIQUE ET AUX ENERGIES …, published 2024).

Chain of amyloid-beta 40 fibril (P05067 672-711, one chain of several): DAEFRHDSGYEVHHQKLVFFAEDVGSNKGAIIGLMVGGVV

B1: N124-G (ssRNA)
RNA: GGGAGAGUAUCCGUUGAGGCUGAUCCGACCAUGCUUCAACUUAUACCUCGGGGACUGUAGAUCGGAAGAGCGUCGUGUAGGGCAUUGCCCCAGCGUGACUGCCUA
modifications: 2'-F on all pyrimidines
On to B1, for which the binding result in data set [1] was “no binding”.

B2: 4F03-G (ssRNA)
RNA: GGGAGAGUAUCCGUUGGAGGCAUGCAACAGACGCACCGUACACACAUCUUGGCCGUUGGCUGCCCGACCAGCCAGAUCGGAAGAGCGUCGUGUAGGGCAUUGCCCCAGCGUGACUGCCUA
modifications: 2'-F on all pyrimidines
With B2, the binding result in data set [2] is on record as “binds”.

B3: F124-G (PF_124) (ssRNA)
RNA: GGGAGAGUAUCCGUUGGAGGCAUCACGGACACCUACCCGACGGCAUGUCAGGACACAUGUUGUGCUCCGUGUGAGAUCGGAAGAGCGUCGUGUAGGGCAUUGCCCCAGCGUGACUGCCUA
modifications: 2'-F on all pyrimidines
For B3, the binding result in data set [2] is “binds”.

B4: Tau 3146 (ssDNA)
DNA: GCCTGTTGTGAGCCTCCTGTCGAACCTTTGGGGTGGCTTGACGAAGAAAGTAGTTGAGCGTTTATTCTTGTCTCCC
For B4, the binding result in data set [3] and in data set [4] was “no binding” in each case.

B5: F5R2 (ssDNA)
DNA: ATCGAGTGGACGAGTGCCTCCGGTACGAGCTGTCTGATGGGTTTGCGCGCAGGATCCA
In the case of B5, the binding result (in the data set with amyloid-beta 40 fibril (label: 32P); in data set [1] (label: 32P)) was “no binding” throughout.

B6: P65-G (P65_10854) (ssRNA)
RNA: GGGAGAGUAUCCGUUGGAGGCAUCGCACAGUGUACACCUACACACAGCAUACCUGUUGGCAUCCCAGGUUGCCAGAUCGGAAGAGCGUCGUGUAGGGCAUUGCCCCAGCGUGACUGCCUA
modifications: 2'-F on all pyrimidines
Regarding B6, the binding result in data set [2] is “binds”.

B7: 4F02-G (ssRNA)
RNA: GGGAGAGUAUCCGUUGGAGGCAUGCUGGCAGCACGCACCGCUGACCGCUGGCUGCACUAUGCGUGUGGAGUGCAGAUCGGAAGAGCGUCGUGUAGGGCAUUGCCCCAGCGUGACUGCCUA
modifications: 2'-F on all pyrimidines
B7: the binding result in data set [2] was “binds”.

B8: N3-G (ssRNA)
RNA: GGGAGAGUAUCCGUUGAGGCUGACAACGCGUUUACCUCACACCACGUCAUCCGUUGCCAGAUCGGAAGAGCGUCGUGUAGGGCAUUGCCCCAGCGUGACUGCCUA
modifications: 2'-F on all pyrimidines
B8 came in with a binding signal in data set [5] of 3.5 fold over Scr2-G.

B9: 4F05-G (ssRNA)
RNA: GGGAGAGUAUCCGUUGGAGGCAUGCCGCAGGCUACACCACAGCUUCCCCUUCAGCGUGUUGUGGAUACUCGGCAGAUCGGAAGAGCGUCGUGUAGGGCAUUGCCCCAGCGUGACUGCCUA
modifications: 2'-F on all pyrimidines
On to B9, for which the binding result in data set [2] is on record as “binds”.

B10: N30-G (ssRNA)
RNA: GGGAGAGUAUCCGUUGAGGCUGAUCGAUCCACGUCCGACAACGCGUUUACUCGCCAUCAGAUCGGAAGAGCGUCGUGUAGGGCAUUGCCCCAGCGUGACUGCCUA
modifications: 2'-F on all pyrimidines
Turning to B10, the dissociation constant Kd (commonly a measure of binding affinity in units of concentration) in data set [6] was found to be 6.62 nM. Moreover, the binding result (with amyloid-beta 40 fibril; in data set [1]) was “no binding” in each case.

B11: 4F01-G (ssRNA)
RNA: GGGAGAGUAUCCGUUGGAGGCAUAGCAGCACACGACCAGUGUGCCCCACACCCAGUGGUGGUCUGUGGUGUGCAGAUCGGAAGAGCGUCGUGUAGGGCAUUGCCCCAGCGUGACUGCCUA
modifications: 2'-F on all pyrimidines
With B11, in data set [2], the binding result was “binds”.
